Drawing on a protein production outcome set (Wang et al. 2014), this text covers protein production for eight sequences.

A short description of this data set: label from the status in PepcDB records.
For the sequence “MKILVDENMPYARELFSRLGEVKAVPGRPIPVEELNHADALMVRSVTKVNESLLSGTPINFVGTATAGTDHVDEAWLKQAGIGFSAAPGCNAIAVVEYVFSALLMLAERDGFSLRDRTIGIVGVGNVGSRLQTRLEALGIRTLLCDPPRAARGDEGDFRTLDELVQEADVLTFHTPLYKDGPYKTLHLADETLIRRLKPGAILINACRGPVVDNAALLARLNAGQPLSVVLDVWEGEPDLNVALLEAVDIGTSHIAGYTLEGKARGTTQVFEAYSAFIGREQRVALETLLPAPEFGRITLHGPLDQPTLKRLAHLVYDVRRDDAPLRKVAGIPGEFDKLRKNYLERREWSSLYVMCDDETAAALLCKLGFNAVHHPAH”, the protein production result is listed as “not failed”.

With “MKILVTGGTGLIGRHFISAFNHKYQFTVLTRNTQKAQLYLPKNIEFIEQLPEQNYFDVIINLAGEPIIDKRWSRAQKENICQSRWNITEKIVEMIARATDKPSCLISGSAIGYYGETGAVSTHEDAKVTHSDFAHTLCQKWEELALKAKEHCRVVLLRTGIVLASDGGALEKMRLPFSLGLGGKLGNGQQYMSWIHIDDMIHAIHFSVQIKCIEGAINCTSPKAITNEVFTKALGKEVNRPTWFSVPAFVLNILMGQGAELLLTSQNIYPQKLLSHGFHFNHSDIEHALADLMTES”, the protein production result is recorded as “failed”.

On to “MKILYPTDFSEVSQKALTECVPSIILGIGEGSELILLHVVDITASEIGALELAEVDKEELNNLASQLREKGIKVKPIVRIGIPSLEISEVAKEENVDLIIIPSKGENILRQMLLGSTASNLARITHKPVLLLRYEVENGEIKSLQDCSRIFEKPLVALDLSKCSEKIIETIKDLPGVREAVLFHVVDYGKVEELENNIKNAKEKLSKYGKLLPWKTKIEVQAGIASKGIIGAAIDNNVTLVVIGKKGRSVLKDLLLGSTAERVIRDCKLPTLLIPCE”, for which the protein production result was “failed”.

As to “MKINQLWQEPKQRSKRYYLLDNIFSAITHGIGFGLAIAGLVVLIVKAAHTGSPMRIVTFTIYGACLVLLYLFSTLYHSLVFTRAKNVFQIFDHSSIFLLIAGSYTPYSLVAIGGVWGWTLFGLIWGLTIFGIIYYVFNRGKHVIFDTILYVAMGWLVILSGPYLYVRLSSTGFWLLVGGGIAYTIGAILFSMRSVPFIHTIWHLFIILGSILMYFSVLLYV”, the protein production result is recorded as “failed”.

Take “MKIPKIYVEGELNDGDRVAIEKDGNAIIFLEKDEEYSGNGKLLYQVIYDDLAKYMSLDTLKKDVLIQYPDKHTLTYLKAGTKLISVPAEGYKVYPIMDFGFRVLKGYRLATLESKKGDLRYVNSPVSGTVIFMNEIPSERANYVFYMLEE”: the protein production result is reported as “not failed”.

As for “MKIRDLLKARRGPLFSFEFFPPKDPEGEEALFRTLEELKAFRPAFVSITYGAMGSTRERSVAWAQRIQSLGLNPLAHLTVAGQSRKEVAEVLHRFVESGVENLLALRGDPPRGERVFRPHPEGFRYAAELVALIRERYGDRVSVGGAAYPEGHPESESLEADLRHFKAKVEAGLDFAITQLFFNNAHYFGFLERARRAGIGIPILPGIMPVTSYRQLRRFTEVCGASIPGPLLAKLERHQDDPKAVLEIGVEHAVRQVAELLEAGVEGVHFYTLNKSPATRMVLERLGLRPASGQP”, the protein production result is reported as “not failed”.

Regarding “MKIRFISLASGSSGNCYYLGTEKYGILIDAGIGIRTIKKSLKDINVTMDSIRAVFITHDHADHIKAVGHLGEKLNIPVYTTARVHAGINKSYCMTEKLHGSVRYLEKEEPMLLEDFRIESFEVPHDGTDNVGYCIEIDGKVFSFLTDLGEITPTAARYICKAHYLIIEANYDEEMLRMGPYPTYLKERISSKTGHMSNIDTANFLAENIMEHLRYIWLCHLSKDNNHPELAYKTVEWKLKSKGIIVGKDVQLLALKRNTPSELYEFE”, the protein production result was “failed”.

For the sequence “MKIRILGSGTSTGVPEIGCTCAVCTSKDPRDCRLRTSALVYTDDATILLDCGPDFREQMLRVPFGKIDAVLISHEHYDHVGGLDDLRPFCRFGEVPIYAETYTAERLRSRMPYCFVEHSYPGVPNIPLREIEPNRPFLVNHTEVLPLRVMHGKLPILGYRIGKLGYITDMLTMPDESFEQLQGIEVLVMNALRIAPHNTHQSLSEALEAVKRIGAKETWLIHMSHHIGLQADVEKQLPPHVHFAFDGLELECLEHHHHHH”, the protein production entry was “failed”.
